Results as given in US20030236197A1 (PRAECIS PHARMACEUTICALS, published 2003).
Square brackets hold non-standard residues; d marks the D form. Ends that are not written are not given here. * marks the point of attachment. dPhe(F5) = N[C@H](Cc1c(F)c(F)c(F)c(F)c1F)C(=O)O; dPhe(4-F) = N[C@H](Cc1ccc(F)cc1)C(=O)O; NHiPr = CC(C)N*

B1: PPI-970: TFA • N-isopropyl-(Gaffvl)-NH2 (peptide)
peptide: G[dA][dF][dF][dV][dL]-NH2
modifications: not fully specified (N-terminus); printed as N-isopropyl-(Gly-D-Ala-D-Phe-D-Phe-D-Val-D-Leu)-NH2; also: TFA salt
B2: PPI-1125: 2 TFA • H-lvf-NH-NH-fvl-H (peptide)
peptide: H-[dL]-[dV]-[dF]
modifications: also: dimer: C-termini of two tripeptides joined through hydrazine (-NH-NH-), 2 TFA salt

These binders were tested against T1, Aβ1-40 peptide (monomeric start material of the nucleation assay) (assay: cell-based or functional assay).

Row | Binder | Nucleation assay Δ lag at 1.25 µM compound | Nucleation assay Δ lag at 2.5 µM compound | Nucleation assay Δ lag at 5 µM compound | Nucleation assay Δ lag at 0.3 µM compound (row marked *: measured at 3, 1 and 0.3 µM) | Nucleation assay Δ lag at 0.6 µM compound (row marked #: measured at 2.5, 1.25 and 0.6 µM) | Nucleation assay Δ lag at 1 µM compound (row marked *: measured at 3, 1 and 0.3 µM) | Nucleation assay Δ lag at 1.25 µM compound (row marked #: measured at 2.5, 1.25 and 0.6 µM) | Nucleation assay Δ lag at 2.5 µM compound (row marked #: measured at 2.5, 1.25 and 0.6 µM) | Nucleation assay Δ lag at 3 µM compound (row marked *: measured at 3, 1 and 0.3 µM)
1 | B1 | 1 ratio of lag time to control | > 5 ratio of lag time to control | > 5 ratio of lag time to control | – | – | – | – | – | –
2 | {N‑methyl}-G[dA][dF][dF][dV][dL]-NH2 (also: TFA salt) [PPI-968: TFA • N-methyl-(Gaffvl)-NH2] | 2 ratio of lag time to control | > 5 ratio of lag time to control | > 5 ratio of lag time to control | – | – | – | – | – | –
3 | H-[dL][dV][dF][dF][dA]-NHiPr (also: TFA salt) [PPI-992: TFA • H-(lvffa)-isopropylamide] | 1 ratio of lag time to control | 1 ratio of lag time to control | 3 ratio of lag time to control | – | – | – | – | – | –
4 | {N,N‑dimethyl}-[dA][dF][dF][dV][dL]-NH2 (also: TFA salt) [PPI-913: TFA • N,N-dimethyl-(affvl)-NH2] | 1 ratio of lag time to control | 1 ratio of lag time to control | 1 ratio of lag time to control | – | – | – | – | – | –
5 | {N,N‑dimethyl}-G[dA][dF][dF][dV][dL]-NH2 (also: TFA salt) [PPI-803: TFA • N,N-dimethyl-(Gaffvl)-NH2] | < 1 ratio of lag time to control | < 1 ratio of lag time to control | < 1 ratio of lag time to control | – | – | – | – | – | –
6 | {N,N‑dimethyl}-[dL][dV][dF][dF][dL]-NH2 (also: TFA salt) [PPI-1007: TFA • N,N-dimethyl-(lvffl)-NH2] | – | – | – | 3 ratio of lag time to control | 1.5 ratio of lag time to control | 4 ratio of lag time to control | 1.5 ratio of lag time to control | 1.5 ratio of lag time to control | 4 ratio of lag time to control
7 | {N,N‑diethyl}-[dA][dF][dF][dV][dL]-NH2 (also: TFA salt) [PPI-1006: TFA • N,N-diethyl-(affvl)-NH2] | 1 ratio of lag time to control | 1 ratio of lag time to control | 1 ratio of lag time to control | – | – | – | – | – | –
8 | H-[dL][dV][dF][dF][dA]-NMe2 (also: TFA salt) [PPI-993: TFA • H-(lvffa)-dimethylamide] | 1 ratio of lag time to control | 1 ratio of lag time to control | 1 ratio of lag time to control | – | – | – | – | – | –
9 | {N,N‑diethyl}-G[dA][dF][dF][dV][dL]-NH2 (also: TFA salt) [PPI-1005: TFA • N,N-diethyl-(Gaffvl)-NH2] | 1 ratio of lag time to control | 3 ratio of lag time to control | 3 ratio of lag time to control | – | – | – | – | – | –

Molecular target: T1, Aβ1-40 peptide (monomeric start …)
Assay: cell-based or functional assay
Remark: another data set of the same source

Row | Binder | Nucleation assay data (Δ lag) at 0.3 µM compound | Nucleation assay data (Δ lag) at 1 µM compound | Nucleation assay data (Δ lag) at 3 µM compound | Nucleation assay data (Δ lag) at 0.6 µM compound (row marked *: measured at 2.5, 1.25 and 0.6 µM) | Nucleation assay data (Δ lag) at 1.25 µM compound (row marked *: measured at 2.5, 1.25 and 0.6 µM) | Nucleation assay data (Δ lag) at 2.5 µM compound (row marked *: measured at 2.5, 1.25 and 0.6 µM)
10 | H-[dL][dF][dPhe(4-F)][dV][dL]-NH2 (also: TFA salt) [PPI-1319: TFA • H-(lf-[p-F]f-vl)-NH2] | 1 ratio of lag time to control | > 5 ratio of lag time to control | > 5 ratio of lag time to control | – | – | –
11 | H-[dL][dF][dK][dV][dL]-NH2 (also: 2 TFA salt) [PPI-1321: 2TFA • H-(lfkvl)-NH2] | < 1 ratio of lag time to control | < 1 ratio of lag time to control | < 1 ratio of lag time to control | – | – | –
12 | {N‑methyl}-[dL][dV][dF][dF][dL]-NH2 (also: TFA salt) [PPI-1019: TFA • N-methyl-(lvffl)-NH2] | – | – | – | 2 ratio of lag time to control | > 2.5 ratio of lag time to control | > 2.5 ratio of lag time to control
13 | H-[dL][dF][dPhe(F5)][dV][dL]-NH2 (also: TFA salt) [PPI-1320: TFA • H-(lf-[F5]f-vl)-NH2] | 1 ratio of lag time to control | 3 ratio of lag time to control | > 5 ratio of lag time to control | – | – | –
14 | B2 | – | – | – | 2 ratio of lag time to control | > 2.5 ratio of lag time to control | > 2.5 ratio of lag time to control
